We go through four substances from patent publication US20250034224A1.

What all share (assay): cell-based or functional assay
Test [1] concerns the target Chimeric antigen receptor containing a VL-VH scFv (VL and VH of antibody 17363N) recognizing T3 (HLA).
Test [2] addresses IL2 receptors (on lymphocyte populations of human PBMCs).
For test [3], the target named is OT-I TCR (Ovalbumin(257-264)-specific) on CD8+ T cells of an OT-I TCR transgenic mouse (mouse). As to conditions: scale: orders of magnitude higher potency than T5-IL2M6.

Regarding “T3-IL2M6: HPV16E7(11-19)-GCGGS-(GGGGS)2-hB2m-(GGGGS)4-hHLA.A2-(GGGGS)4-Fc-(GGGGS)3-hIL2(H16A, F42A) (peptide-MHC)”, the frequency of viable CAR-T (eGFPPos) cells at day 3 of expansion (start 38%) in test [1] was found to be 36%. Substance “IL2M5: Fc-GGGGS-human IL2 (N88D, C125A) fusion (Fc fusion)” registered a potency in STAT5 phosphorylation on multiple lymphocyte populations, against IL2M4 (fold less potent than IL2M4) in test [2] above 100. In test [3], “T4-IL2M6: OVA(257-264)-GCGGS-(GGGGS)2-mB2m-(GGGGS)4-mH2Kb-(GGGGS)4-Fc-(GGGGS)3-hIL2(H16A, F42A) (peptide-MHC)” returned an intracellular STAT5 phosphorylation in gated CD8+ T cells of OT-I splenocytes of 2. Consider “IL2M2: Human IL2-(GGGGS)4-human IL-2Ra-GGGGS-Fc (Fc fusion)”, for which the potency in STAT5 phosphorylation on multiple lymphocyte populations, against IL2M0 (fold less potent than IL2M0) in test [2] turned out to be 100.
